{"source": "paper PMC4353338", "about": "“Molecular annotation of ketol-acid reductoisomerases from Streptomyces reveals a novel amino acid biosynthesis interlock mediated by enzyme promiscuity” (Microbial Biotechnology, 2014)", "proteins": {"B1": {"name": "Eco (Escherichia coli K-12) (protein)", "chain": "ANYFNTLNLRQQLAQLGKCRFMGRDEFADGASYLQGKKVVIVGCGAQGLNQGLNMRDSGLDISYALRKEAIAEKRASWRKATENGFKVGTYEELIPQADLVINLTPDKQHSDVVRTVQPLMKDGAALGYSHGFNIVEVGEQIRKDITVVMVAPKCPGTEVREEYKRGFGVPTLIAVHPENDPKGEGMAIAKAWAAATGGHRAGVLESSFVAEVKSDLMGEQTILCGMLQAGSLLCFDKLVEEGTDPAYAEKLIQFGWETITEALKQGGITLMMDRLSNPAKLRAYALSEQLKEIMAPLFQKHMDDIISGEFSSGMMADWANDDKKLLTWREETGKTAFETAPQYEGKIGEQEYFDKGVLMIAMVKAGVELAFETMVDSGIIEESAYYESLHELPLIANTIARKRLYEMNVVISDTAEYGNYLFSYACVPLLKPFMAELQPGDLGKAIPEGAVDNGQLRDVNEAIRSHAIEQVGKKLRGYMTDMKRIAVAG", "notes": "pET28a, expressed in E. coli BL21 Star (DE3), Ni-NTA purified (His-tagged)"}, "B2": {"name": "Svi2 (Streptomyces viridifaciens) (protein)", "chain": "MAELFYDADADLSIIQGRKVAVIGYGSQGHAHALSLRDSGVDVRVGLHEGSKSKAKAEEQGLRVVTPAEAAAEADVIMILVPDPIQAQVYEESVKDNLKDGDALFFGHGFNIRFGFIKPPAGVDVCMVAPKGPGHLVRRQYEEGRGVPCIAAVEQDASGNAFALALSYAKGIGGTRAGVIKTTFTEETETDLFGEQAVLCGGTSALVKAGFETLVEAGYQPEIAYFECLHELKLIVDLMYEGGLEKMRWSVSETAEWGDYVTGPRIITDATKAEMKKVLAEIQDGTFAKNWMDEYHGGLKKYDDYKEQDSEHLLETTGKQLRKLMSWVNEETM", "notes": "commercially synthesized gene; pET28a, expressed in E. coli BL21 Star (DE3), Ni-NTA purified (His-tagged)"}, "B3": {"name": "Spr (Streptomyces pristinaespiralis ATCC 25486) (protein)", "chain": "MAELFYDDDADLSIIQNRKVAVIGYGSQGHAHALSLRDSGVDVRVGLHEGSKSKAKAEEQGLRVVTPAEAAAEADVIMILIPDPIQAQVYEESVKGNLKDGDALFFAHGFNVRFGFIKAPAGVDVALVAPKGPGHLVRRQYEEGRGVPAIAAVEQDATGNAFALALSYAKAIGGTRAGVIKTTFTEETETDLFGEQAVLCGGASALVKAGFETLTEAGYQPEIAYFECLHELKLIVDLMYEGGLEKMRWSVSETAEWGDYITGPRIITDQTKAEMKKVLAEIQDGTFAKNWMDEYHGGLKKYDEYKTQDSEHLLETTGKELRKLMSWVDNDEA", "notes": "as for B1"}, "B4": {"name": "Sgr (Streptomyces griseus subsp. griseus NBRC 13350) (protein)", "chain": "MAELFYDDDADLSIIQGRKVAVLGYGSQGHAHALSLRDSGVDVRVGLHEGSKSKAKAEEQGLRVVTPSEAAAEADVIMILVPDPIQAQVYEESVKDNLKDGDALFFGHGLNIRFGFIKPPAGVDVCMVAPKGPGHLVRRQYEEGRGVPCIVAVEQDASGKGLELALSYAKGIGGTRAGVIKTTFTEETETDLFGEQAVLCGGTAALVKAGFETLTEAGYQPEIAYFECLHELKLIVDLMYEGGLEKMRWSISETAEWGDYVTGPRIITDATKAEMKKVLAEIQDGTFAKNWMAEYHNGLPKYNEYKKADSDHLLETTGRELRKLMSWVNDEEA", "notes": "as for B1"}, "B5": {"name": "Sav (Streptomyces avermitilis MA-4680 = NBRC 14893) (protein)", "chain": "MAELFYDADADLSIIQGRKVAVIGYGSQGHAHALSLRDSGVDVRVGLHEGSKSKAKAEEQGLRVVTPSEAAAEADVIMILVPDPIQAQVYEESIKDNLKDGDALFFGHGLNIRFGFIKPPAGVDVCMVAPKGPGHLVRRQYEEGRGVPCIAAVEQDATGNGFALALSYAKGIGGTRAGVIKTTFTEETETDLFGEQAVLCGGTAALVKAGFETLTEAGYQPEIAYFECLHELKLIVDLMYEGGLEKMRWSISETAEWGDYVTGPRIITDATKAEMKKVLAEIQDGTFAQAWMDEYHGGLKKYNEYKTQDENHLLETTGKELRKLMSWVNDEEA", "notes": "as for B1"}, "B6": {"name": "Cgl (Corynebacterium glutamicum ATCC 13032) (protein)", "chain": "MAIELLYDADADLSLIQGRKVAIVGYGSQGHAHSQNLRDSGVEVVIGLREGSKSAEKAKEAGFEVKTTAEAAAWADVIMLLAPDTSQAEIFTNDIEPNLNAGDALLFGHGLNIHFDLIKPADDIIVGMVAPKGPGHLVRRQFVDGKGVPCLIAVDQDPTGTAQALTLSYAAAIGGARAGVIPTTFEAETVTDLFGEQAVLCGGTEELVKVGFEVLTEAGYEPEMAYFEVLHELKLIVDLMFEGGISNMNYSVSDTAEFGGYLSGPRVIDADTKSRMKDILTDIQDGTFTKRLIANVENGNTELEGLRASYNNHPIEETGAKLRDLMSWVKVDARAETA", "notes": "as for B1"}, "B7": {"name": "Sco1 (Streptomyces coelicolor A3(2)) (protein)", "chain": "MAELFYDADADLSIIQGRKVAVIGYGSQGHAHALSLRDSGVDVRVGLHEGSKSKAKAEEQGLRVVPVAEAAAEADVIMILVPDPIQAEVYEKDIKDNLKDGDALFFGHGLNIRYGFIKPPAGVDVCMVAPKGPGHLVRRQYEEGRGVPCIAAVEQDATGNAFALALSYAKGIGGTRAGVIKTTFTEETETDLFGEQAVLCGGTAALVKAGFETLTEAGYQPEIAYFECLHELKLIVDLMYEGGLEKMRWSISETAEWGDYVTGPRIITDATKAEMKKVLAEIQDGTFAKNWMDEYHGGLKKYNEYKKQDSEHLLETTGKELRKLMSWVDEEA", "notes": "as for B1"}, "B8": {"name": "Sco2 (Streptomyces coelicolor A3(2)) (protein)", "chain": "B7 chain with I117V, I150L, A151V, K181R, C200A, T203V, A204T, A270V, K276R", "notes": "as for B1"}, "B9": {"name": "Sli1 (Streptomyces lividans TK24) (protein)", "chain": "B7 chain", "notes": "as for B1"}, "B10": {"name": "Sam (Streptomyces ambofaciens) (protein)", "chain": "B7 chain with P66S, V67P, A68S, E88Q, K92E, D93H, Y114F, T158S, K307Q, E320Q", "notes": "as for B1"}}, "assay_in_all_cases": "purified protein", "conditions_in_all_cases": "0.1 M Tris-HCl pH 8, 10 mM MgCl2, 0.22 mM NADP(H), 25 C", "key": {"[1]": {"substrate": "CC(C)(O)C(=O)C(=O)O", "format": "biochemical, Escherichia coli"}, "[2]": {"substrate": "CC(=O)[C@](C)(O)C(=O)O", "format": "biochemical, Streptomyces viridifaciens"}, "[3]": {"substrate": "CC(C)(O)C(=O)C(=O)O", "format": "biochemical, Streptomyces viridifaciens"}, "[4]": {"substrate": "CC(=O)[C@](C)(O)C(=O)O", "format": "biochemical, Streptomyces pristinaespiralis"}, "[5]": {"substrate": "CC(C)(O)C(=O)C(=O)O", "format": "biochemical, Streptomyces pristinaespiralis"}, "[6]": {"substrate": "CC(=O)[C@](C)(O)C(=O)O", "format": "biochemical, Streptomyces griseus"}, "[7]": {"substrate": "CC[C@](O)(C(C)=O)C(=O)O", "format": "biochemical, Streptomyces griseus"}, "[8]": {"substrate": "CC(=O)[C@](C)(O)C(=O)O", "format": "biochemical, Streptomyces avermitilis"}, "[9]": {"substrate": "CC[C@](O)(C(C)=O)C(=O)O", "format": "biochemical, Streptomyces avermitilis"}, "[10]": {"substrate": "CC(C)(O)C(=O)C(=O)O", "format": "biochemical, Corynebacterium glutamicum"}, "[11]": {"substrate": "CC(=O)[C@](C)(O)C(=O)O", "format": "biochemical, Streptomyces coelicolor"}, "[12]": {"substrate": "CC(C)(O)C(=O)C(=O)O", "format": "biochemical, Streptomyces coelicolor"}, "[13]": {"substrate": "CC(=O)[C@](C)(O)C(=O)O", "format": "biochemical, Streptomyces lividans"}, "[14]": {"substrate": "CC(C)(O)C(=O)C(=O)O", "format": "biochemical, Streptomyces lividans"}, "[15]": {"substrate": "CC(=O)[C@](C)(O)C(=O)O", "format": "biochemical, Streptomyces ambofaciens"}, "[16]": {"substrate": "CC(C)(O)C(=O)C(=O)O", "format": "biochemical, Streptomyces ambofaciens"}}, "note": "Residue numbers refer to the chain shown, from its start."}
{"protein": "B1", "values": [{"measurement": "Km", "setting": "[1]", "value": "260 ± 30", "unit": "µM"}, {"measurement": "kcat", "setting": "[1]", "value": "3.1 ± 0.25", "unit": "s⁻¹"}]}
{"protein": "B2", "values": [{"measurement": "Km", "setting": "[2]", "value": "1800 ± 900", "unit": "µM"}, {"measurement": "kcat", "setting": "[2]", "value": "2 ± 0.07", "unit": "s⁻¹"}, {"measurement": "Km", "setting": "[3]", "value": "5000 ± 4800", "unit": "µM"}, {"measurement": "kcat", "setting": "[3]", "value": "2.5 ± 0.3", "unit": "s⁻¹"}]}
{"protein": "B3", "values": [{"measurement": "Km", "setting": "[4]", "value": "9000 ± 700", "unit": "µM"}, {"measurement": "kcat", "setting": "[4]", "value": "3.6 ± 0.3", "unit": "s⁻¹"}, {"measurement": "Km", "setting": "[5]", "value": "8600 ± 900", "unit": "µM"}, {"measurement": "kcat", "setting": "[5]", "value": "5.2 ± 0.6", "unit": "s⁻¹"}]}
{"protein": "B4", "values": [{"measurement": "Km", "setting": "[6]", "value": "1200 ± 700", "unit": "µM"}, {"measurement": "kcat", "setting": "[6]", "value": "0.42 ± 0.04", "unit": "s⁻¹"}, {"measurement": "Km", "setting": "[7]", "value": "2500 ± 300", "unit": "µM"}, {"measurement": "kcat", "setting": "[7]", "value": "0.44 ± 0.03", "unit": "s⁻¹"}]}
{"protein": "B5", "values": [{"measurement": "Km", "setting": "[8]", "value": "800 ± 90", "unit": "µM"}, {"measurement": "kcat", "setting": "[8]", "value": "0.24 ± 0.2", "unit": "s⁻¹"}, {"measurement": "Km", "setting": "[9]", "value": "2600 ± 300", "unit": "µM"}, {"measurement": "kcat", "setting": "[9]", "value": "0.4 ± 0.04", "unit": "s⁻¹"}]}
{"protein": "B6", "values": [{"measurement": "Km", "setting": "[10]", "value": "2300 ± 250", "unit": "µM"}, {"measurement": "kcat", "setting": "[10]", "value": "0.9 ± 0.08", "unit": "s⁻¹"}]}
{"protein": "B7", "values": [{"measurement": "Km", "setting": "[11]", "value": "1600 ± 200", "unit": "µM"}, {"measurement": "kcat", "setting": "[11]", "value": "1.1 ± 0.2", "unit": "s⁻¹"}, {"measurement": "Km", "setting": "[12]", "value": "3000 ± 200", "unit": "µM"}, {"measurement": "kcat", "setting": "[12]", "value": "2.2 ± 0.15", "unit": "s⁻¹"}]}
{"protein": "B8", "values": [{"measurement": "Km", "setting": "[11]", "value": "12000 ± 800", "unit": "µM"}, {"measurement": "kcat", "setting": "[11]", "value": "0.24 ± 0.01", "unit": "s⁻¹"}, {"measurement": "Km", "setting": "[12]", "value": "10000 ± 110", "unit": "µM"}, {"measurement": "kcat", "setting": "[12]", "value": "0.3 ± 0.04", "unit": "s⁻¹"}]}
{"protein": "B9", "values": [{"measurement": "Km", "setting": "[13]", "value": "1200 ± 70", "unit": "µM"}, {"measurement": "kcat", "setting": "[13]", "value": "0.7 ± 0.59", "unit": "s⁻¹"}, {"measurement": "Km", "setting": "[14]", "value": "4000 ± 500", "unit": "µM"}, {"measurement": "kcat", "setting": "[14]", "value": "2.8 ± 0.3", "unit": "s⁻¹"}]}
{"protein": "B10", "values": [{"measurement": "Km", "setting": "[15]", "value": "2000 ± 150", "unit": "µM"}, {"measurement": "kcat", "setting": "[15]", "value": "0.63 ± 0.5", "unit": "s⁻¹"}, {"measurement": "Km", "setting": "[16]", "value": "4000 ± 300", "unit": "µM"}, {"measurement": "kcat", "setting": "[16]", "value": "0.8 ± 0.1", "unit": "s⁻¹"}]}
